Substitutions are numbered along the chain they refer to. In names and notes the source's numbering stands.

A short description of assay [1]: naringenin glucosylation acceptor reaction with recombinant glucansucrases (microplate screening). It counts as biochemical. The note with it: sucrose 146 mM, naringenin 5 mM, 3% DMSO, 30° C., 24 h; HPLC-UV 340 nm peak areas. In a few lines:
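Centrifuged recombinant glucansucrase lysates incubated 24 h at 30° C., 700 rpm, with 146 mM sucrose and 5 mM naringenin (3% v/v DMSO final), then heat-denatured at 95° C. Products separated by reverse-phase HPLC with UV at 340 nm; efficiency is glucosylated-flavonoid peak area as % of glucosylated plus residual aglycone areas.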

A short description of assay [2]: apigenin glucosylation acceptor reaction with recombinant glucansucrases (microplate screening). It counts as biochemical. The note with it: sucrose 146 mM, apigenin 2.5 mM, 3% DMSO, 30° C., 24 h; HPLC-UV 340 nm peak areas. In outline:
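Centrifuged […] lysates of recombinant glucansucrases incubated with 146 mM sucrose and 2.5 mM apigenin (3% v/v DMSO final) at 30° C, 700 rpm for 24 h, then heat-denatured. Glucosylation efficiency (%) = glucosylated peak areas over glucosylated plus residual aglycone areas, from reverse-phase HPLC-UV at 340 nm.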

B1: V331H: ASNp amylosucrase single mutant (protein, UniProt Q9ZEU2 1-636, looked up, variant V331H)
Amylosucrase: MLTPTQQVGLILQYLKTRILDIYTPEQRAGIEKSEDWRQFSRRMDTHFPKLMNELDSVYGNNEALLPMLEMLLAQAWQSYSQRNSSLKDIDIARENNPDWILSNKQVGGVCYVDLFAGDLKGLKDKIPYFQELGLTYLHLMPLFKCPEGKSDGGYAVSSYRDVNPALGTIGDLREVIAALHEAGISAVVDFIFNHTSNEHEWAQRCAAGDPLFDNFYYIFPDRRMPDQYDRTLREIFPDQHPGGFSQLEDGRWVWTTFNSFQWDLNYSNPWVFRAMAGEMLFLANLGVDILRMDAVAFIWKQMGTSCENLPQAHALIRAFNAVMRIAAPAHFFKSEAIVHPDQVVQYIGQDECQIGYNPLQMALLWNTLATREVNLLHQALTYRHNLPEHTAWVNYVRSHDDIGWTFADEDAAYLGISGYDHRQFLNRFFVNRFDGSFARGVPFQYNPSTGDCRVSGTAAALVGLAQDDPHAVDRIKLLYSIALSTGGLPLIYLGDEVGTLNDDDWSQDSNKSDDSRWAHRPRYNEALYAQRNDPSTAAGQIYQGLRHMIAVRQSNPRFDGGRLVTFNTNNKHIIGYIRNNALLAFGNFSEYPQTVTAHTLQAMPFKAHDLIGGKTVSLNQDLTLQPYQVMWLEIA
On to B1, for which, in assay [1], the naringenin glucosylation efficiency is 0.0%. In assay [2], the apigenin glucosylation efficiency worked out at 0.1%.

B2: V331K: ASNp amylosucrase single mutant (protein, UniProt Q9ZEU2 1-636, looked up, variant V331K)
Amylosucrase: B1 Amylosucrase with H331K
For the molecule B2, the naringenin glucosylation efficiency in assay [1] was determined as 0.0%. In assay [2], the apigenin glucosylation efficiency is reported as 0.2%.

B3: V331I: ASNp amylosucrase single mutant (protein, UniProt Q9ZEU2 1-636, looked up, variant V331I)
Amylosucrase: B1 Amylosucrase with H331I
Turning to B3, the naringenin glucosylation efficiency in assay [1] is 0.0%. The apigenin glucosylation efficiency in assay [2] was 0.3%.

B4: R446Q: ASNp amylosucrase single mutant, SEQ ID NO: 8 (protein, listed as Neisseria polysaccharea)
chain: SPNSQYLKTRILDIYTPEQRAGIEKSEDWRQFSRRMDTHFPKLMNELDSVYGNNEALLPMLEMLLAQAWQSYSQRNSSLKDIDIARENNPDWILSNKQVGGVCYVDLFAGDLKGLKDKIPYFQELGLTYLHLMPLFKCPEGKSDGGYAVSSYRDVNPALGTIGDLREVIAALHEAGISAVVDFIFNHTSNEHEWAQRCAAGDPLFDNFYYIFPDRRMPDQYDRTLREIFPDQHPGGFSQLEDGRWVWTTFNSFQWDLNYSNPWVFRAMAGEMLFLANLGVDILRMDAVAFIWKQMGTSCENLPQAHALIRAFNAVMRIAAPAVFFKSEAIVHPDQVVQYIGQDECQIGYNPLQMALLWNTLATREVNLLHQALTYRHNLPEHTAWVNYVRSHDDIGWTFADEDAAYLGISGYDHRQFLNRFFVNRFDGSFARGVPFQYNPSTGDCQVSGTAAALVGLAQDDPHAVDRIKLLYSIALSTGGLPLIYLGDEVGTLNDDDWSQDSNKSDDSRWAHRPRYNEALYAQRNDPSTAAGQIYQDLRHMIAVRQSNPRFDGGRLVTFNTNNKHIIGYIRNNALLAFGNFSEYPQTVTAHTLQAMPFKAHDLIGGKTVSLNQDLTLQPYQVMWLEIA
As to B4, the naringenin glucosylation efficiency in assay [1] came to 0.0%. Moreover, the apigenin glucosylation efficiency in assay [2] is given as 1.9%.
